Biological target: unidentified GPNMB ligand(s) on the surface of SVEC4-10 cells
Test: flow cytometry, soluble moGPNMB-Fc on SVEC4-10 cells, PE anti-IgG Fc secondary; thin-line histogram shifted right with a tail to about 10^4, thick-line control histogram near 0

PE-A subset (share of cells in the drawn gate, unit not given): 70.1
B1: soluble mouse GPNMB-Fc polypeptide (Fc of human IgG1 or mouse IgG2A, not specified for the assay) (Fc fusion, UniProt Q99P91 23-502, looked up, not shown: a dimerising Fc or GST)
chain: KRFRDVLGHEQYPDHMREHNQLRGWSSDENEWDEHLYPVWRRGDGRWKDSWEGGRVQAVLTSDSPALVGSNITFVVNLVFPRCQKEDANGNIVYEKNCRNDLGLTSDLHVYNWTAGADDGDWEDGTSRSQHLRFPDRRPFPRPHGWKKWSFVYVFHTLGQYFQKLGRCSARVSINTVNLTAGPQVMEVTVFRRYGRAYIPISKVKDVYVITDQIPVFVTMSQKNDRNLSDEIFLRDLPIVFDVLIHDPSHFLNDSAISYKWNFGDNTGLFVSNNHTLNHTYVLNGTFNLNLTVQTAVPGPCPPPSPSTPPPPSTPPSPPPSPLPTLSTPSPSLMPTGYKSMELSDISNENCRINRYGYFRATITIVEGILEVSIMQIADVPMPTPQPANSLMDFTVTCKGATPMEACTIISDPTCQIAQNRVCSPVAVDGLCLLSVRRAFNGSGTYCVNFTLGDDASLALTSTLISIPGKDPDSPLRAVN
